Results taken from patent US11994512B2, “Single-cell genomic methods to generate ex vivo cell systems that recapitulate in vivo biology with improved fidelity” (Massachusetts Institute of Technology, priority 2018, dated 2024).

B1: Q8C2E4 (protein, UniProt Q8C2E4 1-695, looked up)
chain: MDLLRLSRLFSGPRPIGLSVLQHLDLVGSTRWTGGREGPARLRAAFCGSSSPLPLGSGNQKEMSSLCSDSSKLSTVAPQEEAEEESFGSLSGKFSSRRIFHKSTAQLYNLQLKEQGGEEEELEPRPWRGRRNTQYWYFFQCKRLIKEGKLAEALDLFERQMLKEERLQPLECNYTVLIGGCGRVGYLKKAFRLFNDMKKRDLEPSDATYTALFNVCAESPWKDSALQSALKLRQQLQARNFQLNLKTYHALLKVAAKCADLRLCLDVFKEIIQRGHAVTEETFCFLLVGCIQDKKTGFRQAMQVWRQMLSLGIKPSRHGYNLLLEAARDCGLGDPEVASRLLLTSQEETILLPPPKGRHMAGRKVQAKTVHGVSLRHVEALERQLFLEPSQKLEGPPALPEARVTSRTQPEVETTAEPGHTVALTPLASKPTHLELEVSLLSLGTLSPAVVSFGTVATPADRLALMGGLEGFLGKMTEHGLQPDIKTLTLLAEVVEPGSTAESSLLSVLDRHRVEADVTFFNTLIRKKSKLGDLEGAKALLPILAKKGIVPNLRTFCNLAIGCHRPRDGMQLLADMKKSQVSPNIHIYSTLINAALKKLDYTYLISILKDMRQNSVPVNEVVVRQLEFAAEYPPTFDRYKGKNTYLEKIDGFRAYYKQWLKAMPAEEAPHPWQEFQNKPVGDQDTTDKAGGLRDG
modifications: full-length
B2: Q8C5N3 (protein, UniProt Q8C5N3 1-908, looked up)
chain: MKSSVAHMKSSGHNRRETHSSYRRSSSPEDRYTEQERSPRDRGYSDYSRSDYERSRRGYSYDDSMESRSRDREKRRERERDADHRKRSRKSPSPDRSPARGGGQSSPQEEPTWKKKKDELDPLLTRTGGAYIPPAKLRMMQEQITDKSSLAYQRMSWEALKKSINGLINKVNISNISIIIQELLQENIVRGRGLLSRSVLQAQSASPIFTHVYAALVAIINSKFPQIGELILKRLILNFRKGYRRNDKQLCLTASKFVAHLINQNVAHEVLCLEMLTLLLERPTDDSVEVAIGFLKECGLKLTQVSPRGINAIFERLRNILHESEIDKRVQYMIEVMFAVRKDGFKDHPVILEGLDLVEEDDQFTHMLPLEDDYNPEDVLNVFKMDPNFMENEEKYKAIKKEILDEGDSDSNTDQGAGSSEDEEEEDEEEEGEDEEGGQKVTIHDKTEINLVSFRRTIYLAIQSSLDFEECAHKLLKMEFAESQTKELCNMILDCCAQQRTYEKFFGLLAGRFCMLKKEYMESFESIFKEQYDTIHRLETNKLRNVAKMFAHLLYTDSLPWSVLECIKLSEETTTSSSRIFVKIFFQELCEYMGLPKLNARLKDETLQPFFEGLLPRDNPRNTRFAINFFTSIGLGGLTDELREHLKNTPKVIVAQKPEAEQKKPALTSSSSESSSASDSSDSESDSSESSSESSSDASDSSSSSSTQSSTSGITAHSAKGTRKKRQGKARGEEVDKLARGHQALERRREGGREDQRHQEGRTERARSERRRAQNSRDADWRDPLAKHIDDRSHENSHSRVGNGREQGSHREPEDRHGEPKKRRERRDSFSENEKQRSRNQDSDNVRRKDRSKSRERSRRHSGHKGDDARCQNSAERRWEKPGRRPEQSRESKRSQDRRREKSPTTQK
modifications: full-length

Test system: intracellular proteome of ENR+CD and ENR organoids
Assay: LC-MS/MS TMT proteomics of ENR+CD versus ENR organoids
Format: cell-based, C57BL/6 mice
Settings: for Average logFC: ENR+CD versus ENR organoids, sample pairs in aggregate (n=4, 2 technical replicates from two biological donors); for M1-1 Log2 Median Normalized / M1-2 Log2 Median Normalized / M2-1 Log2 Median Normalized / M2-2 Log2 Median Normalized: protein abundance ratio ENR+CD versus ENR organoids, LC-MS/MS TMT proteomics; for M1-1 Log2 Median Normalized: sample pair M1-1; for M1-2 Log2 Median Normalized: sample pair M1-2; for M2-1 Log2 Median Normalized: sample pair M2-1; for M2-2 Log2 Median Normalized: sample pair M2-2; for change: up = enriched in ENR+CD, down = enriched in ENR, FDR<0.05 and log fold change cut-off

Molecule	Average logFC	M1-1 Log2 Median Normalized	M1-2 Log2 Median Normalized	M2-1 Log2 Median Normalized	M2-2 Log2 Median Normalized	change
B1	−1.79	−1.411	−1.637	−1.8825	−2.231	down
B2	−1.281	−1.581	−0.922	−0.9735	−1.648	down
